Consider 2 molecules from PMC5807055, “Atomic Structure of Type VI Contractile Sheath from Pseudomonas aeruginosa” (Structure(London, England:1993), 2018).

To fix the notation:
B1: P. aeruginosa TssB1 (H1-T6SS sheath protein), produced in E. coli (natural protein)
chain: MGSTTSSQKFIARNRAPRVQIEYDVELYGAEKKVQLPFVMGVMADLAGKPAEPQAAVADRKFLEIDVDNFDARLKAMKPRVAFNVPNVLTGEGNLSLDITFESMDDFSPAAVARKVDSLNKLLEARTQLANLLTYMDGKTGAEEMIMKAIKDPALLQALASAPKPKDDEPQA
notes: TssB1 of the H1-T6SS cluster of Pseudomonas aeruginosa; 172 residues in total (132 traced; M1-S3 and M136-A172 not traced); also called VipA/IglA homologue; source: E. coli B834(DE3), co-produced with TssC1 from pET28-B1C1, purified as TssB1C1 tubes (size exclusion chromatography)
B2: P. aeruginosa TssC1 (H1-T6SS sheath protein), produced in E. coli (natural protein)
chain: MAELSTENLAQGQTTTEQTSEFASLLLQEFKPKTERAREAVETAVRTLAEHALEQTSLISNDAIKSIESIIAALDAKLTAQVNLIMHHADFQQLESAWRGLHYLVNNTETDEQLKIRVLNISKPELHKTLKKFKGTTWDQSPIFKKLYEEEYGQFGGEPYGCLVGDYYFDQSPPDVELLGEMAKISAAMHAPFISAASPTVMGMGSWQELSNPRDLTKIFTTPEYAGWRSLRESEDSRYIGLTMPRFLARLPYGAKTDPVEEFAFEEETDGADSSKYAWANSAYAMAVNINRSFKLYGWCSRIRGVESGGEVQGLPAHTFPTDDGGVDMKCPTEIAISDRREAELAKNGFMPLLHKKNTDFAAFIGAQSLQKPAEYDDPDATANANLAARLPYLFATCRFAHYLKCIVRDKIGSFKEKDEMQRWLQDWILNYVDGDPAHSTETTKAQHPLAAAEVVVEEVEGNPGYYNSKFFLRPHYQLEGLTVSLRLVSKLPSAKEA
notes: TssC1 of the H1-T6SS cluster of Pseudomonas aeruginosa; 498 residues in total (461 traced; M1-A37 not traced); also called VipB/IglB homologue; source: E. coli B834(DE3), co-produced with TssB1 from pET28-B1C1, purified as TssB1C1 tubes (size exclusion chromatography)

Series [1] deals with B2. Kind of series: cryo-EM structure; TssB1C1 sheaths (1 mg/ml) purified from E. coli, vitrified; helical reconstruction in RELION; contracted sheath with 13-fold symmetry, 3.3 Å; SEC buffer 50 mM Tris-HCl pH 9, 250 mM NaCl, 1 mM EDTA, 5 mM DTT. The following applies: both partners purified.
Series [2] concerns the molecule itself. The series is described as above.

With B1, the binding result in series [1] is recorded as “binds”.

In the case of B2, in series [2], the binding result is on record as “binds”.
